The supplement of paper PMC10724198
± gives the standard deviation of the averaged measurements.
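Further: PSI is a weighted mean of sequencing reads over stability bins, variants kept only with over 10 reads, mCherry proximal and sfGFP distal, peptide attached via GGGS linker.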

What follows are sequences tested on Saccharomyces cerevisiae (assay: protein stability index of tFT-peptide fusion (C-terminal peptide) (PSI (0-1 scale)); higher = more stable (slower turnover)). Conditions: genetic background: wild type; temperature: 30 C.
With GSRVEVGLGVRC the protein stability index was 0.712 ± 0.027. PPAPLALPRLPS gave a protein stability index of 0.715 ± 0.061. Sequence SKGISARLAREG has a protein stability index of 0.653 ± 0.038. Sequence IIAESPWFLIIR has a protein stability index of 0.444 ± 0.094. Work on PPPPPPPVLSSI yielded a protein stability index of 0.647 ± 0.076. KKEQPKEKQGNK gave a protein stability index of 0.732 ± 0.053. PTPTGPGSTSPP gave a protein stability index of 0.662 ± 0.046. NRRVSGPLCMQE gave a protein stability index of 0.687 ± 0.054. Work on SLALASTLRLPP yielded a protein stability index of 0.69 ± 0.047. For ESAGLAGLSRAA, the protein stability index was 0.668 ± 0.022. SIVRRVRDRIGR showed a protein stability index of 0.641 ± 0.038. Sequence FRGTVYRGTRPR has a protein stability index of 0.622 ± 0.072. LPASPPLSGLIF was tested, and the protein stability index was 0.823 ± 0.14. For KTKKKYENRKKK, the protein stability index was 0.684 ± 0.0094. AGIFGGGRGVSV gave a protein stability index of 0.647 ± 0.039. VGVVGGSWEVVG showed a protein stability index of 0.685 ± 0.031. Work on LPRSRLAPPPCS yielded a protein stability index of 0.73 ± 0.015. RWCVGFRLCHDS showed a protein stability index of 0.636 ± 0.019. In the case of LFPAAPAPPPPP, the protein stability index is reported as 0.658 ± 0.028. In the case of IKKKVKNQKENQ, the protein stability index is reported as 0.726 ± 0.013. AVGFFAASVPGF gave a protein stability index of 0.7293 ± 0.0069. PAPPLPLTPPPL gave a protein stability index of 0.788 ± 0.014. RKDEKEMVRKTK showed a protein stability index of 0.682 ± 0.061. In the case of PVRFVDGFLSPI, the protein stability index is reported as 0.713 ± 0.03. For PHAPQSPGWLHG, the protein stability index was 0.7 ± 0.028. In the case of DTYKDSHLNRRI, the protein stability index is reported as 0.664 ± 0.022. SPASPPPPSPLL gave a protein stability index of 0.695 ± 0.028. With CPGNGVFYSGRG the protein stability index was 0.679 ± 0.014. With GGFICRHGVGRG the protein stability index was 0.708 ± 0.011. Work on PDRPYPPPLVAR yielded a protein stability index of 0.694 ± 0.058. For VPFYHIFPPFRP, the protein stability index was 0.777 ± 0.088. In the case of PPPPPPSPHPPS, the protein stability index is reported as 0.726 ± 0.024. With ESLRNGKKYNKL the protein stability index was 0.7417 ± 0.0017. In the case of GTETFHDASIGI, the protein stability index is reported as 0.653 ± 0.016. For PPVSPFPVLQGR, the protein stability index was 0.652 ± 0.048. GGRCWMCVAVTE gave a protein stability index of 0.591 ± 0.019. NGAGRGMVGGCG showed a protein stability index of 0.666 ± 0.079. GQQETIGLRAHI showed a protein stability index of 0.681 ± 0.025. For PVPPRPHGFPHL, the protein stability index was 0.678 ± 0.023. PPTPPAFPPLLA showed a protein stability index of 0.662 ± 0.03. For RPSPSLPSPSPP, the protein stability index was 0.843 ± 0.081. Sequence KSRGYSKQQIRG has a protein stability index of 0.72 ± 0.015. DSGVAVVLVGCV showed a protein stability index of 0.529 ± 0.013. CVLARVWMRGGR showed a protein stability index of 0.636 ± 0.023. Work on FVLADLVPILFS yielded a protein stability index of 0.7102 ± 0.0013. VCIGGGGVVLGL was tested, and the protein stability index was 0.645 ± 0.04. For VVQEIGGSVRRE, the protein stability index was 0.6814 ± 0.0035. TKRKKLEIGFLR gave a protein stability index of 0.625 ± 0.079. For PLRISPPPAPHP, the protein stability index was 0.7251 ± 0.0025. WTIVEALPRGVV showed a protein stability index of 0.679 ± 0.046. Sequence PPRLNKAPCLDP has a protein stability index of 0.705 ± 0.036. Sequence PLLLLLPALPPL has a protein stability index of 0.679 ± 0.026. For TLGYLPLRSLKI, the protein stability index was 0.641 ± 0.046. In the case of PSCLGSIRSTPL, the protein stability index is reported as 0.657 ± 0.02. VLRGMSVFGLGE showed a protein stability index of 0.74 ± 0.14. PRLARSASLDSP showed a protein stability index of 0.731 ± 0.08. For PPPPHCPQPPPP, the protein stability index was 0.72 ± 0.018. Work on SLAAPFPSLPNF yielded a protein stability index of 0.652 ± 0.036. DEMNEGHVPPGV was tested, and the protein stability index was 0.718 ± 0.071. For LLPGLVGMLSCM, the protein stability index was 0.602 ± 0.039. With GSMWCLTPSAGL the protein stability index was 0.7 ± 0.034. NGVLRPMATGAP showed a protein stability index of 0.666 ± 0.039. VFCFRFLSFCPW showed a protein stability index of 0.542 ± 0.026. In the case of SGRAGAPSVIRR, the protein stability index is reported as 0.694 ± 0.053. In the case of AGPKYHLGIPAP, the protein stability index is reported as 0.678 ± 0.014. With APSRPFPAHPPP the protein stability index was 0.602 ± 0.044. With GGGVGASMSGTP the protein stability index was 0.689 ± 0.0069. In the case of GRSFRQWRDSGS, the protein stability index is reported as 0.718 ± 0.066. RLEFSFHPFFLS gave a protein stability index of 0.658 ± 0.02. VVCRDGLSSCVG was tested, and the protein stability index was 0.623 ± 0.019. Sequence SCIRATGSNVSP has a protein stability index of 0.664 ± 0.029. SCSLGIRSFFSL was tested, and the protein stability index was 0.7 ± 0.021. Work on KLEEKRKEMERK yielded a protein stability index of 0.7093 ± 0.007. VKSSSCSVLRSL gave a protein stability index of 0.7 ± 0.038. With FPPAHPPPCLPP the protein stability index was 0.6473 ± 0.003. YGGFLHALAMGG was tested, and the protein stability index was 0.677 ± 0.0014. Sequence GVYNGGIPQVLQ has a protein stability index of 0.6843 ± 0.0028. Work on GRLGRMWRCDPR yielded a protein stability index of 0.658 ± 0.032. Work on IPRHLGTRVVPI yielded a protein stability index of 0.682 ± 0.072. MWPCRVRWLDHW showed a protein stability index of 0.73 ± 0.034. With LVRVLHRSHASA the protein stability index was 0.685 ± 0.031. YGLAGFLWGCGE showed a protein stability index of 0.799 ± 0.051. Work on REGSIISYPASG yielded a protein stability index of 0.6989 ± 0.0019. In the case of TCHPLCSSSADR, the protein stability index is reported as 0.712 ± 0.039. With VGVSGVCGDWAM the protein stability index was 0.67 ± 0.05. Work on GVSWSWGDLAVL yielded a protein stability index of 0.756 ± 0.016. With VCTLLWLLSLVS the protein stability index was 0.573 ± 0.017. In the case of GLGAWRGAGRVG, the protein stability index is reported as 0.649 ± 0.053. In the case of SYGRECCGYASA, the protein stability index is reported as 0.764 ± 0.081. SGIILEKGGGGN was tested, and the protein stability index was 0.679 ± 0.026. Work on SYLLPHTRFCFL yielded a protein stability index of 0.674 ± 0.034. Work on ASRRSRLPWLLL yielded a protein stability index of 0.629 ± 0.0083. In the case of LFFNLLLFFSFI, the protein stability index is reported as 0.488 ± 0.018. With PPRPPPSPPSFP the protein stability index was 0.688 ± 0.014. Sequence LPSQRPWLAQSI has a protein stability index of 0.717 ± 0.01. For SFLVPRARPVLL, the protein stability index was 0.688 ± 0.041. In the case of GGLGWGARQGAL, the protein stability index is reported as 0.68 ± 0.024. For HVGGISSPLTPC, the protein stability index was 0.656 ± 0.025. LPPPPSPLPPRP gave a protein stability index of 0.627 ± 0.048. For LGGLYGTAMSCT, the protein stability index was 0.683 ± 0.023. CSVSACTVSLCC showed a protein stability index of 0.5849 ± 0.0017.
